# Laboratory results published in PMC7126439.
# Columns and labels:
# GCN4-pA = test: AUC
# GCN4-pV = test: AUC
Substance,stoichiometry N (GCN4-pA),stoichiometry N (GCN4-pV)
GCN4-pA (peptide),4,
GCN4-pV (peptide),,4
